Results on 34 sequences are retold here after the supplement of paper PMC7877785.

This data set in a line: self-splicing fitness, log relative to wild type (ln ratio); higher = more splicing; Tetrahymena group I intron in knt gene, E. coli kanamycin selection, DiMSum; sequences stand for … in CUCUCU…GGAGGGAAAAGUUAUCAGGCAUGCACCUGGUAGCUAGUCUUUAAACCAAUAGAUUGCAUCGGUUUAAAAGGCAAGACCGUCAAAUUGCGGGAAAGGGGUCAACAGCCGUUCAGUACCAAGUCUCAGGGGAAACUUUGAGAUGGCCUUGCAAAGGGUAUGGUAAUAAGCUGACGGACAUGGUCCUAACCACGCAGCCAAGUCCUAAGUCAACAGAUCUUCUGUUGAUAUGGAUGCAGUUCACAGACUAAAUGUCGGUCGGGGAAGAUGUAUUCUUCUCAUAAGAUAUAGUCGGACCUCUCCUUAAUGGGAGCUAGCGGAUGAAGUGAUGCAACACUGGAGCCGCUGGGAACUAAUUUGUAUGCGAAAGUAUAUUGAUUAGUUUUGGAGUACUCGUGGUCG
The method, boiled down: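 Pooled colonies went to amplicon sequencing on an Illumina HiSeq 2500 after six replicate transformations. The plates were LB agar with 100 μg/mL carbenicillin, 50 μM IPTG and 0.2% rhamnose, with or without 25 μg/mL kanamycin, incubated overnight at 37°C or 30°C. The E. coli BL21(DE3) library had all eight P1ex-region intron nucleotides randomised, the intron placed in the knt kanamycin-resistance gene on pET-22b(+). DiMSum fitness is the error-weighted combination of replicate fold changes, kanamycin against none, normalised to wild type.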

± gives the uncertainty stated by the source.

Regarding GGAGAGCAAUAUUACGUGAU, the “self-splicing fitness (ln)” value (30 °C) is -3.33 ± 0.24 and the “self-splicing fitness (ln)” value (37 °C) was -1.75 ± 0.31.

Turning to UGAAAGCAAUAUUACGAAUC, the “self-splicing fitness (ln)” value is -3.58 ± 0.21 (30 °C) and -2.53 ± 0.21 (37 °C).

For the sequence GGUCAGCAAUAUUACGUUAC, the “self-splicing fitness (ln)” value runs as follows: (30 °C) -1.25 ± 0.061; (37 °C) -0.483 ± 0.08.

As for GCCAAGCAAUAUUACGCUCG, the “self-splicing fitness (ln)” value is, setting by setting: (30 °C) -3.5 ± 0.2; (37 °C) -1.84 ± 0.15.

As for UACGAGCAAUAUUACGACCG, the “self-splicing fitness (ln)” value (30 °C) is -1.8 ± 0.45.

GCGAAGCAAUAUUACGUGUC: the “self-splicing fitness (ln)” value (30 °C) was -4.67 ± 0.46 and the “self-splicing fitness (ln)” value (37 °C) is -3.21 ± 0.33.

Regarding AUGUAGCAAUAUUACGGCAG, the “self-splicing fitness (ln)” value reads like this: (30 °C) -0.715 ± 0.073; (37 °C) 0.288 ± 0.11.

Consider CUACAGCAAUAUUACGUACU, for which the “self-splicing fitness (ln)” value reads like this: (30 °C) -3.15 ± 0.14; (37 °C) -1.05 ± 0.15.

As for GUUAAGCAAUAUUACGCCUG, the “self-splicing fitness (ln)” value runs as follows: (30 °C) -0.512 ± 0.11; (37 °C) -0.224 ± 0.12.

As for AUUGAGCAAUAUUACGGCCC, the “self-splicing fitness (ln)” value (37 °C) was 0.679 ± 0.5.

In the case of CAUGAGCAAUAUUACGAUGC, the “self-splicing fitness (ln)” value (30 °C) is -3.19 ± 0.17 and the “self-splicing fitness (ln)” value (37 °C) is -1.89 ± 0.2.

Take AUGCAGCAAUAUUACGGAGA: the “self-splicing fitness (ln)” value reads like this: (30 °C) -4.25 ± 0.44; (37 °C) -4.21 ± 0.34.

In the case of CUUCAGCAAUAUUACGUACG, the “self-splicing fitness (ln)” value runs as follows: (30 °C) -0.327 ± 0.062; (37 °C) 0.542 ± 0.088.

Regarding CAUGAGCAAUAUUACGGUCG, the “self-splicing fitness (ln)” value was -0.34 ± 0.091 (30 °C) and 0.0674 ± 0.1 (37 °C).

For CCAAAGCAAUAUUACGCAGA, the “self-splicing fitness (ln)” value is -3.75 ± 0.19 (30 °C) and -2.65 ± 0.18 (37 °C).

With GGAAAGCAAUAUUACGUUAU, the “self-splicing fitness (ln)” value (30 °C) is -2.24 ± 0.09 and the “self-splicing fitness (ln)” value (37 °C) is -1.16 ± 0.12.

With CAGCAGCAAUAUUACGUACA, the “self-splicing fitness (ln)” value is, setting by setting: (30 °C) -2.34 ± 0.15; (37 °C) -1.97 ± 0.16.

For CAAGAGCAAUAUUACGUCGG, the “self-splicing fitness (ln)” value (30 °C) is -1.4 ± 0.087 and the “self-splicing fitness (ln)” value (37 °C) was -1.37 ± 0.11.

With GUGUAGCAAUAUUACGGGGG, the “self-splicing fitness (ln)” value reads like this: (30 °C) -3.23 ± 0.41; (37 °C) -2.07 ± 0.43.

As for CCAAAGCAAUAUUACGGAGG, the “self-splicing fitness (ln)” value by setting is: (30 °C) -3.79 ± 0.25; (37 °C) -2.04 ± 0.21.

On to AGUGAGCAAUAUUACGGACA, for which the “self-splicing fitness (ln)” value is, setting by setting: (30 °C) -1.09 ± 0.2; (37 °C) -1.5 ± 0.27.

Take CUAGAGCAAUAUUACGGUCG: the “self-splicing fitness (ln)” value (30 °C) is 0.342 ± 0.11 and the “self-splicing fitness (ln)” value (37 °C) was -0.264 ± 0.13.

UGGAAGCAAUAUUACGCGGG: the “self-splicing fitness (ln)” value runs as follows: (30 °C) -3.32 ± 0.24; (37 °C) -1.29 ± 0.22.

With CCGCAGCAAUAUUACGCGGA, the “self-splicing fitness (ln)” value was -3.03 ± 0.29 (30 °C) and -3.11 ± 0.3 (37 °C).

As to CUCUAGCAAUAUUACGAGUC, the “self-splicing fitness (ln)” value (37 °C) is -2.8 ± 0.3.

As to AUUGAGCAAUAUUACGUAUU, the “self-splicing fitness (ln)” value is -4.59 ± 0.38 (30 °C) and -1.25 ± 0.16 (37 °C).

As to AGUUAGCAAUAUUACGUUCA, the “self-splicing fitness (ln)” value reads like this: (30 °C) -1.28 ± 0.15; (37 °C) -0.155 ± 0.16.

AAUCAGCAAUAUUACGGGGA: the “self-splicing fitness (ln)” value is, setting by setting: (30 °C) -1.82 ± 0.1; (37 °C) -0.723 ± 0.1.

On to AGGCAGCAAUAUUACGAGUA, for which the “self-splicing fitness (ln)” value by setting is: (30 °C) -1.94 ± 0.15; (37 °C) -1.65 ± 0.14.

Take AUAGAGCAAUAUUACGGCUU: the “self-splicing fitness (ln)” value is, setting by setting: (30 °C) -0.934 ± 0.12; (37 °C) -1.34 ± 0.14.

For the sequence AAAUAGCAAUAUUACGCGCC, the “self-splicing fitness (ln)” value is, setting by setting: (30 °C) -0.57 ± 0.13; (37 °C) -0.337 ± 0.15.

As for GCGCAGCAAUAUUACGACAG, the “self-splicing fitness (ln)” value was -3.49 ± 0.17 (30 °C) and -3.05 ± 0.18 (37 °C).

Consider GUGUAGCAAUAUUACGCCAC, for which the “self-splicing fitness (ln)” value (37 °C) is -1.07 ± 0.48.

Regarding CUUUAGCAAUAUUACGACGG, the “self-splicing fitness (ln)” value runs as follows: (30 °C) -0.354 ± 0.13; (37 °C) -0.827 ± 0.16.
